These are literature values, as cited in paper PMC13042399.

This data set addresses IGF2 (Homo sapiens) (UniProt P01344).

Sequence of IGF2 (Homo sapiens) (P01344 25-91): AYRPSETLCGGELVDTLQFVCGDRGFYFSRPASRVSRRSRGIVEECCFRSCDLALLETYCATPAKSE

What is called Kd is the free concentration of one partner at which half of the binding sites on the other are occupied at equilibrium, for simple one-to-one binding. On to IGF2R (from UniProt P11717), for which the equilibrium dissociation constant (Kd) is 40 nM.
